Test results: PMC11360561

Columns and labels:
[1] = target: Human bufavirus 1 (BuV1) VP2, assembled as virus-like particles (human bufavirus 1); experiment: cryo-EM structure; purified BuV1 VP2 VLPs dialyzed to pH 7.4 in universal buffer (20 mM HEPES, 20 mM MES, 20 mM sodium acetate, 150 mM NaCl); icosahedral reconstruction
[2] = target: Human bufavirus 1 (BuV1) VP2, assembled as virus-like particles (human bufavirus 1); experiment: cryo-EM structure; purified BuV1 VP2 VLPs co-incubated with 6SLN (or 3SLN) glycan in 10-fold molar excess of the potential binding sites; icosahedral reconstruction, 60-mer model
[3] = target: Human bufavirus 1 (BuV1) VP2, assembled as virus-like particles (human bufavirus 1); experiment: cryo-EM structure; purified BuV1 VP2 VLPs dialyzed to pH 4.0 in universal buffer (20 mM HEPES, 20 mM MES, 20 mM sodium acetate, 150 mM NaCl); icosahedral reconstruction
[4] = target: Human bufavirus 1 (BuV1) VP2, assembled as virus-like particles (human bufavirus 1); experiment: cryo-EM structure; purified BuV1 VP2 VLPs dialyzed to pH 2.6 in 50 mM glycine HCl, 150 mM NaCl; icosahedral reconstruction; full and half (broken) capsids seen in micrographs

Measured: stoichiometry N

Human bufavirus 1 (BuV1) VP2, assembled as virus-like particles (natural protein)
60: all assays above
